In paper PMC4945075:

Target: T1, His-tagged cyt-SpoIIE (cytosolic part of SpoIIE), fluorescently labeled (B. subtilis)
T1 sequence (P37475 whole entry, looked up): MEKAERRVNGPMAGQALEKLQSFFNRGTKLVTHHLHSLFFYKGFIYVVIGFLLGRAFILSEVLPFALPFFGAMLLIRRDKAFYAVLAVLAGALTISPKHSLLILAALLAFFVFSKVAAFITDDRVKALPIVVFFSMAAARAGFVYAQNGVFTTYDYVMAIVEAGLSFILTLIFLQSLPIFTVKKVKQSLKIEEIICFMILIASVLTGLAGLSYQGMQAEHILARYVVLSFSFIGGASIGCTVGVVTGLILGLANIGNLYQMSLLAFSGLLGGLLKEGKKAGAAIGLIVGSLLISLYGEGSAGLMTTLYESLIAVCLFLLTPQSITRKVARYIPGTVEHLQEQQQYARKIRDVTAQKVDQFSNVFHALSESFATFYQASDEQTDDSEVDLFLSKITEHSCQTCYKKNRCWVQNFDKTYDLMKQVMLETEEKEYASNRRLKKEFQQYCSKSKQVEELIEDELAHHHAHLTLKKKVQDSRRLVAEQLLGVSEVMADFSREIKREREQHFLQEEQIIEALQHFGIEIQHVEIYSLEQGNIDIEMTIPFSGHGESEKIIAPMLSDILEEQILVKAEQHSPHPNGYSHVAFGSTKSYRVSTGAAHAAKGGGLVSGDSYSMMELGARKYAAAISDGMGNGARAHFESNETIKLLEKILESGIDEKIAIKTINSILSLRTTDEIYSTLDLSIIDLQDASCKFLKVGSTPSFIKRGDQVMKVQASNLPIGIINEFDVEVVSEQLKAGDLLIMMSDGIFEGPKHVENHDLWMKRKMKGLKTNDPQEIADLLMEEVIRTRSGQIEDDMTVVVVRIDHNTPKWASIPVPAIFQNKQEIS
Assay: MST; labeled cyt-SpoIIE constant at 34 μM, unlabeled cyt-RodZ titrated 6.7 nM to 221 μM; 25 mM Tris-HCl pH 8.0, 150 mM NaCl, 40 mM imidazole, 5% glycerol, 0.05% Tween-20; Monolith NT.115; 'preliminary Kd'

Kd: 10 µM
B1: His6-tagged cyt-RodZ (cytosolic part of RodZ) (domain or fragment)
chain: MFVVTELGIRLKEAREEKAMSLDDLQAATKIQKRYLTALEEGNYDIIPGKFYVRAFIKQYAEAVGLDADQLFEEHKKDIPNTYHDDVSEKI
